Ends that are not written are not given here. * marks the point of attachment. Biotin = O=C1N[C@H]2[C@H](CS[C@H]2CCCCC(=O)*)N1

Assay type in all cases: binding
Assay [1] concerns the target T1, PDZ protein (GST-PDZ fusion) (Homo sapiens, UniProt O15018).
T1 construct: made in house; host or cells: E. coli (DH5alpha, BL21 or JM109)
The assay can be described thus: G' assay (10 uM PL peptide), results of TABLE 7 and TABLE 12. The settings on record: PDZ AIPC, PDZ Domain 1. From the text: (§1) Each page of TABLE 7 and 12 includes seven columns. The columns in each table are numbered from left to right such that the left-most column in each table is column 1 and the right-most column in each table is column 7. Thus, the first column in each table is labeled “AVC ID”; this column simply lists an internal reference number used to refer to the carboxyl-terminal amino acids of the PL proteins listed in the second column. […] All PL peptides were biotinylated at the amino-terminus and the sequences of these PL peptides are presented in TABLE 8 (see end of specification).
(§2) This column provides the gene name for the PDZ portion of the GST-PDZ fusion that interacts with the PDZ-ligand to the left. For PDZ domain-containing proteins with multiple domains, the domain number is listed to the right of the PDZ (i.e., in column 5 labeled “PDZ Domain”), and indicates the PDZ domain number when numbered from the amino-terminus to the carboxy-terminus.
(§3) The third column labeled “Peptide Optimal Concentration” in the tables is a number reflective of the binding interaction between the PL protein and PDZ protein. […] The column labeled “Protein Optimal Concentration” refers to the protein concentration used to assay PL interaction (in ug/ml); a ‘0’ is indicative of 5 ug/ml protein concentration; any other value represents the concentration (in ug/ml) used to determine the dissociation constant for a given interaction.
(§4) Finally, the seventh column labeled “Classification” is another measure of the level of binding. In particular, it provides an absorbance value at 450 nm which indicates the amount of PL peptide bound to the PDZ protein. The following numerical values have the following meanings: ‘1’—A450 nm 0-1; ‘2’—A450 nm 1-2; ‘3’—A450 nm 2-3; ‘4’—A450 nm 3-4; ‘5’—A450 nm of 4 more than 2× repeated; ‘0’—A450 nm 0, i.e., not found to interact. Thus, higher numbers indicate stronger interactions.
(§5) For convenience, the assay conditions described in this section are referred to as the “G′ assay” and the “G″ assay,” with the specific conditions described in the preceding section on G assays being referred to as the “G^0 assay.” The “G′ assay” is identical to the “G^0 assay” except at step (2) the peptide concentration is 10 uM instead of 20 uM.

The target of assay [2] is T2, PDZ protein (GST-PDZ fusion) (Homo sapiens, UniProt Q6P0Q8).
T2 construct: made in house; host or cells: E. coli (DH5alpha, BL21 or JM109)
T2 sequence (Q6P0Q8 whole entry, the tested form may be a part): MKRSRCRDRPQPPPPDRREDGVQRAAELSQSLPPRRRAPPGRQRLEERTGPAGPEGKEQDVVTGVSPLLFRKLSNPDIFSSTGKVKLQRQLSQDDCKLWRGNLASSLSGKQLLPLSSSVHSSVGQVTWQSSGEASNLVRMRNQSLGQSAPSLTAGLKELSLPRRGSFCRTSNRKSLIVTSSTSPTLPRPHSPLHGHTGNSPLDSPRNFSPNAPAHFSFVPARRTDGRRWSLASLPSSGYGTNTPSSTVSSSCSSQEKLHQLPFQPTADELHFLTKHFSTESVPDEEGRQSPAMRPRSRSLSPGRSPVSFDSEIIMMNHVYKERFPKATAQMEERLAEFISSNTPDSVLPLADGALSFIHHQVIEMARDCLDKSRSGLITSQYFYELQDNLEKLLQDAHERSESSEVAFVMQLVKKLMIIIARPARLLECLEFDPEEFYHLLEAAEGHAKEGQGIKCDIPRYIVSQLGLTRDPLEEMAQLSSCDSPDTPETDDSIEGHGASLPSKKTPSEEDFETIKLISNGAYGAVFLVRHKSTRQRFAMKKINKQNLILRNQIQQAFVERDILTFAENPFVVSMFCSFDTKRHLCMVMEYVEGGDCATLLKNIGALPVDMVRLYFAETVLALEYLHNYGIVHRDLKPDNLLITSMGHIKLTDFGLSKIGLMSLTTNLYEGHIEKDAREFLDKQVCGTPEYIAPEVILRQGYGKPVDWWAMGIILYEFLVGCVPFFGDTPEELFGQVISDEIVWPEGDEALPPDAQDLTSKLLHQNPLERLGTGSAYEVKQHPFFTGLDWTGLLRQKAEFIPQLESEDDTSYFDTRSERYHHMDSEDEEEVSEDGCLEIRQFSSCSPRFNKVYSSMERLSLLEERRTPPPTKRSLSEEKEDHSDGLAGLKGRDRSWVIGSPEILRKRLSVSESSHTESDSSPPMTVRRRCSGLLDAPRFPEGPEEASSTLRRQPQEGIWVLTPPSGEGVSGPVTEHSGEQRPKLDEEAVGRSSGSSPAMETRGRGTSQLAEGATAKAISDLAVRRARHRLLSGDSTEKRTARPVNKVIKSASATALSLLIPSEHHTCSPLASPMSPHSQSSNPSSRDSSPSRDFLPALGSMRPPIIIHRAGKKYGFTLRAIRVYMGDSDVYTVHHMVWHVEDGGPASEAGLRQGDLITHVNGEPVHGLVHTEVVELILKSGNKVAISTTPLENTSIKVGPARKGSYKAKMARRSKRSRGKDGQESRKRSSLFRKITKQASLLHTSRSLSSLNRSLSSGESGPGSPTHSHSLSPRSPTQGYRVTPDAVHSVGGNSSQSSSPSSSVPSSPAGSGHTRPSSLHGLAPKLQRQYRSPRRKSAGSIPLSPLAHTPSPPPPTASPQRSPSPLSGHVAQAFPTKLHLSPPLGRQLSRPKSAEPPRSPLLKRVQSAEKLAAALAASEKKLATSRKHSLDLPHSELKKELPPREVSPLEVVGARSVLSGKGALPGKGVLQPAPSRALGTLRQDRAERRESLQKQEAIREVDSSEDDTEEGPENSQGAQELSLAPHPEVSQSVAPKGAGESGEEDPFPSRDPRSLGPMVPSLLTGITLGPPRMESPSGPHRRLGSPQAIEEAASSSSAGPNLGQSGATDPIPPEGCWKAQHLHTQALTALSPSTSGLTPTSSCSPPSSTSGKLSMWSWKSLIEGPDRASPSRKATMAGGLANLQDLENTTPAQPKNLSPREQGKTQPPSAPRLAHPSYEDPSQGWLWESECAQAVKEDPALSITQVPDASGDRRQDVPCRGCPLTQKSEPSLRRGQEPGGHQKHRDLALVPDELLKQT
The description is as above.
Source text: as §1, §2, §3, §4, §5

Assay [3] concerns the target T3, PDZ protein (GST-PDZ fusion) (Homo sapiens, UniProt Q13796).
T3 construct: made in house; host or cells: E. coli (DH5alpha, BL21 or JM109)
The description is as above. The following applies: PDZ hAPXL, PDZ Domain 1.
Source text: as §1, §2, §3, §4, §5

For the next assay, the target named is T4, PSD-95 (Homo sapiens, UniProt P78352).
T4 construct: protein spans from amino terminal end of first PDZ domain to carboxy-terminal end of third PDZ domain in frame with GST in vector; made in house; host or cells: E. coli DH5alpha
T4 sequence (P78352 58-398 limits assumed): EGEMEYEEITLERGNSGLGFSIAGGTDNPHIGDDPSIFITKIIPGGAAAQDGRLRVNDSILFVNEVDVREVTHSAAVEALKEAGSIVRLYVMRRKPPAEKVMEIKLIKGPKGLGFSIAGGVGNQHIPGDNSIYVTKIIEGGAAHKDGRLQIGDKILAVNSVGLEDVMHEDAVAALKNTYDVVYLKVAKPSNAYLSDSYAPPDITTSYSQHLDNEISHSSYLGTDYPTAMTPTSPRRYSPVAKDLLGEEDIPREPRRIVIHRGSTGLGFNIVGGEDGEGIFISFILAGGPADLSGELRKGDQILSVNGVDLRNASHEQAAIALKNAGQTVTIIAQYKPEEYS
In words: G assay competition of short unlabeled peptides with biotinylated 20-mers (Example 6, TABLE 6). The settings on record: 100 = no competitor. The source says: (§6) The potential for unlabeled 8-mers and 3-mers to compete for binding with biotinylated 20-mers to PDZ domains was examined. Interactions between a PDZ domain and two or more biotinylated peptides mimicking PDZ ligands identified through the ‘G Assay’ were used as model interactions. Short, 3 or 8 amino acid, unlabeled peptides were synthesized by standard techniques and used at variable concentrations with a set concentration of biotinylated 20-mer. Ability of both the 3-mer and 8-mer to inhibit longer peptide binding was observed, making PDZ:PL interactions an attractive target for design of small molecule or peptide therapeutics.
(§7) Peptides representing the C-terminal 3, 8 or 20 amino acids of a PDZ ligand were synthesized by standard FMOC chemistry and biotinylated if not used as an unlabeled competitor. Peptides three amino acids in length were acetylated to more properly mimic the peptide bond without introducing an amino-terminal charged group. Peptides were purified by reverse phase high performance liquid chromatography (HPLC) using a Vydac 218TP C18 Reversed Phase column having the dimensions of 10*25 mm, 5 um. Approximately 40 mg of peptide was dissolved in 2.0 ml of and aqueous solution of 49.9% acetonitrile and 0.1% Tri-Fluoro acetic acid (TFA). This solution was then injected into the HPLC machine through a […] syringe filter (Millipore). Buffers used to get a good separation are (A) distilled water with 0.1% TFA and (B) 0.1% TFA with Acetonitrile.
(§8) The G Assay was performed as described in EXAMPLE 3 with the exception that when a short competitor was used, 30 ul of competitor peptide (at twice the final concentration) was mixed with 30 ul biotinylated 20-mer (at twice the final concentration) and then added to the well.
(§9) PSD-95 and DLG-1 were incubated in the wells at 5 ug/ml as described in the G Assay protocol. Biotinylated 20-mer peptides used were 20 uM CLASP-2, 20 uM CD46, 10 uM CD95, and 10 uM KV1.3 (find sequences of peptides in TABLE 8). Competitors (unlabeled, short peptides) tested against each of the biotinylated peptides were 50 uM 8-mer of CD95, 100 uM 8-mer of CD46, 50 uM 8-mer of CLASP-2, and 1 mM and 500 uM acetylated 3-mer of CLASP-2. To deduce sequences, refer to TABLE 8. All absorbances were read at 450 nm after stopping TMB detection reaction at 30 min. Results were normalized in each group by dividing its A450 by the A450 of the PDZ/peptide binding in the absence of competitor and converting to percentage by multiplying by 100.

The next assay addresses T5, DLG-1 (Homo sapiens, UniProt Q12959).
T5 construct: protein spans from amino terminal end of first PDZ domain to carboxy-terminal end of third PDZ domain in frame with GST in vector; made in house; host or cells: E. coli DH5alpha
The description is as above. The settings on record: 100 = no competitor.
Source text: as §6, §7, §8, §9

Assay [4] concerns PDZ protein (GST-PDZ fusion). In words: G' assay (10 uM PL peptide), results of TABLE 7 and TABLE 12.
Source text: as §1, §2, §3, §4, §5

The target of assay [5] is T6, PDZ protein (GST-PDZ fusion) (Homo sapiens, UniProt O14907).
T6 construct: made in house; host or cells: E. coli (DH5alpha, BL21 or JM109)
T6 sequence (O14907 1-124): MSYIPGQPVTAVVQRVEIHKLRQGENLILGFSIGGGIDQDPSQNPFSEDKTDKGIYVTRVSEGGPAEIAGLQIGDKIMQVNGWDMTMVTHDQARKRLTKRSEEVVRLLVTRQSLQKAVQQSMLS
Described as above. The settings on record: PDZ TIP1, PDZ Domain 1.
Source text: as §1, §2, §3, §4, §5

In assay [6] the target is T7, PDZ protein (GST-PDZ fusion) (Homo sapiens, UniProt Q12923).
T7 construct: made in house; host or cells: E. coli (DH5alpha, BL21 or JM109)
The description is as above. The settings on record: PDZ PTPL-1, PDZ Domain 2.
Source text: as §1, §2, §3, §4, §5

Assay [7] has as its target T8, PDZ protein (GST-PDZ fusion) (Homo sapiens, UniProt Q5TCQ9).
T8 construct: made in house; host or cells: E. coli (DH5alpha, BL21 or JM109)
T8 sequence (Q5TCQ9 1-1481): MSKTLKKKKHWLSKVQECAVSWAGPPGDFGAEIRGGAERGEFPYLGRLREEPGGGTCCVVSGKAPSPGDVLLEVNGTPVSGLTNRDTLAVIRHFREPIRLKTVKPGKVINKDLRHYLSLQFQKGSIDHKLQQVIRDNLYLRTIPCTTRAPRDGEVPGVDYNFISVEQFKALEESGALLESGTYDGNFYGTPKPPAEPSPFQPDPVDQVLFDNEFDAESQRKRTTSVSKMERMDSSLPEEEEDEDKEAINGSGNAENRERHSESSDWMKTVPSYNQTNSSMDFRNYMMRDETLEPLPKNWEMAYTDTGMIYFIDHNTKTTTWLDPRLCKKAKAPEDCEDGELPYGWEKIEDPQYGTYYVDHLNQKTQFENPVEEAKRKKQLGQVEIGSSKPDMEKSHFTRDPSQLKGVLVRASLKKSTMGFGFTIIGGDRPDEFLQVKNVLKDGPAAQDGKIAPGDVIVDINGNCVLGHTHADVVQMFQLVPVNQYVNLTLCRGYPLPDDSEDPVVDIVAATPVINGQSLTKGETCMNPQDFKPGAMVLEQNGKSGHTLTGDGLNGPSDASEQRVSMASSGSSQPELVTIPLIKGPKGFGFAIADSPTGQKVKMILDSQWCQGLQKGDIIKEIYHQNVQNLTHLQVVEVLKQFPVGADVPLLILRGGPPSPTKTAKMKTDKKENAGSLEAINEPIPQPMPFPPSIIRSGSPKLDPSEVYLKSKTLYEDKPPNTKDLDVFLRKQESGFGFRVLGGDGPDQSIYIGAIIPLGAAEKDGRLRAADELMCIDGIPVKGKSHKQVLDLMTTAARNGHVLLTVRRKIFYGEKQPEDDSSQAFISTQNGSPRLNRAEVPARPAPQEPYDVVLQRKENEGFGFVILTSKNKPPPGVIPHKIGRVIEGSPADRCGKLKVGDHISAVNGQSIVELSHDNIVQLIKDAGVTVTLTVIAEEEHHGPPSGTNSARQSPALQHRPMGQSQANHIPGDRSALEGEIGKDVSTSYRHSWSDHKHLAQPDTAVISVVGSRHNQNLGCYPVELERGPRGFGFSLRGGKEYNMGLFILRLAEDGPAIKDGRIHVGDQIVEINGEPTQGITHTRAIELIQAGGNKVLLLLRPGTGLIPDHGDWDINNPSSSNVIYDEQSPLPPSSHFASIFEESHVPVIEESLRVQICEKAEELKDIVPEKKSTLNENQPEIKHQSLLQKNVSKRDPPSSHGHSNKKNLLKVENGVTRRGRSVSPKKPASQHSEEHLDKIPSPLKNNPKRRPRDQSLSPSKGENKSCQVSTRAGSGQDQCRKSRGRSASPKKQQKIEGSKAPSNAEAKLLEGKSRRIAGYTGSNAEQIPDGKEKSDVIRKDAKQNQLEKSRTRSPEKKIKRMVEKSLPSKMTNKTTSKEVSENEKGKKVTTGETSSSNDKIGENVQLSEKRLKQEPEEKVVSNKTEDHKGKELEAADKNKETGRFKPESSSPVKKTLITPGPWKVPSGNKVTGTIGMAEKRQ
The assay is described as above. The following applies: PDZ KIAA1634, PDZ Domain 2.
Source text: as §1, §2, §3, §4, §5

The target of assay [8] is T9, PDZ protein (GST-PDZ fusion) (Homo sapiens, UniProt Q14160).
T9 construct: made in house; host or cells: E. coli (DH5alpha, BL21 or JM109)
The description is as above. The following applies: PDZ KIAA0147, PDZ Domain 1.
Source text: as §1, §2, §3, §4, §5

Where [9] appears, read: biotinylated 20-mer CD46 20 uM, competitor 50 uM.
Where [10] appears, read: biotinylated 20-mer CD95 10 uM, competitor 50 uM.
Setting [11] is: biotinylated 20-mer CLASP-2 20 uM, competitor 50 uM.
[12] abbreviates: biotinylated 20-mer CD46 20 uM, competitor 100 uM.
Where [13] appears, read: biotinylated 20-mer CD95 10 uM, competitor 100 uM.
The mark [14] stands for this setting: biotinylated 20-mer CLASP-2 20 uM, competitor 100 uM.
Setting [15] is: biotinylated 20-mer KV1.3 10 uM, competitor 100 uM.

T5 sequence (Q12959 224-546 limits assumed): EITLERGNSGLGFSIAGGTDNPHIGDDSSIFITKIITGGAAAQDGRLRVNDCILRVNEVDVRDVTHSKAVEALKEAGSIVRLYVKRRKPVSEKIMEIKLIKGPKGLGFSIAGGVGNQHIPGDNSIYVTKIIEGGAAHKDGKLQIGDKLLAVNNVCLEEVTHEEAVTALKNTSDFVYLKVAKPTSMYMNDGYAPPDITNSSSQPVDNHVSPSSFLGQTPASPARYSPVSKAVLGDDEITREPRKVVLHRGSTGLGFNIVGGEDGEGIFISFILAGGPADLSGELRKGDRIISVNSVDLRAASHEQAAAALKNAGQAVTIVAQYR
T3 sequence (Q13796 whole entry, the tested form may be a part): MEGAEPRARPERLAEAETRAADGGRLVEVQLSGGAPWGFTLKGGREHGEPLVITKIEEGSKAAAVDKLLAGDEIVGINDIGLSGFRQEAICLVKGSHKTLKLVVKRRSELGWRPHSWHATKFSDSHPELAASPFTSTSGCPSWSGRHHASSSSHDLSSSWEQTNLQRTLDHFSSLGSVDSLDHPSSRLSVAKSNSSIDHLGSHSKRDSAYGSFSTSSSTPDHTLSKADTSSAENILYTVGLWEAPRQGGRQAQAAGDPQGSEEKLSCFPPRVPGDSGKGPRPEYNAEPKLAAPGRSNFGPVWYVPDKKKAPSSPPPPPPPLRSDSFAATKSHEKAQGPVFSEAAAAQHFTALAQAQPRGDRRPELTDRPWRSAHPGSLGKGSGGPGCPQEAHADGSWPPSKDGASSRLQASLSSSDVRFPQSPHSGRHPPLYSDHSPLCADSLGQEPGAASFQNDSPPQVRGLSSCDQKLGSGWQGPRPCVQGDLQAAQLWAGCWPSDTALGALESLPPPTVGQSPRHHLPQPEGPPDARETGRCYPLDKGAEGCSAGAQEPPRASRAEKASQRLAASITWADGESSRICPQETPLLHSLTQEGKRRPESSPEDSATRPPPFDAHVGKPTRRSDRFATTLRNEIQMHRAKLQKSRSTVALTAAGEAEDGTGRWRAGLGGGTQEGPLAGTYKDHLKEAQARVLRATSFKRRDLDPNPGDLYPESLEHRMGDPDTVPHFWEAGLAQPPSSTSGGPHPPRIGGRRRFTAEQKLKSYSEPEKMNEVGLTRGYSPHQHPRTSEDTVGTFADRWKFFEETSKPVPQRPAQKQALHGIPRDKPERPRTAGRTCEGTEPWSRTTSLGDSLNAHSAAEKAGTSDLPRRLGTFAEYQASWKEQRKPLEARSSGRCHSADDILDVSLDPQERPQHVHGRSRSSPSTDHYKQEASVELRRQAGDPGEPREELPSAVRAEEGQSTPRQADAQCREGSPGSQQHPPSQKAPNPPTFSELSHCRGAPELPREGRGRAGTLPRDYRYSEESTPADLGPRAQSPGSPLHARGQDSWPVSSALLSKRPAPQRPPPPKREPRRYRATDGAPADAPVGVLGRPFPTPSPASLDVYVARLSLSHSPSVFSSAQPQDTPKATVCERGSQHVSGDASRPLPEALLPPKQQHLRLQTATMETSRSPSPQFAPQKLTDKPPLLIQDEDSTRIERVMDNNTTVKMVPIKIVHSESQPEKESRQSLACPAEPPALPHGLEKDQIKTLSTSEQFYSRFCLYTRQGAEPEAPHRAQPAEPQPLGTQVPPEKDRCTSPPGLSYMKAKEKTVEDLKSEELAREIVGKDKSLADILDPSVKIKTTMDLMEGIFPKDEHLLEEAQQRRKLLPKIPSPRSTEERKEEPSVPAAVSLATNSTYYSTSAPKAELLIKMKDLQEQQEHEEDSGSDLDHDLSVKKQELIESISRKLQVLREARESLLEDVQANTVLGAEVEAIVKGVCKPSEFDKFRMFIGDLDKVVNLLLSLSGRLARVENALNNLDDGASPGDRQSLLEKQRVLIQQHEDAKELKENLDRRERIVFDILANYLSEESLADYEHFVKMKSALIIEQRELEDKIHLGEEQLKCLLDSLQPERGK

For “ACM3_HUMAN (Biotin-QQYQQRQSVIFHKRAPEQAL)”, the Classification in assay [1] was 1 (A450 nm 0-1); in assay [2] (PDZ KIAA807) it was 1 (A450 nm 0-1); in assay [2] (PDZ KIAA0807(S), PDZ Domain 1) it was 1 (A450 nm 0-1); in assay [3], 1 (A450 nm 0-1).
As to “MTSSSSVV [CLASP-2 8-mer, unlabeled peptide of the C-terminal 8 amino acids of CLASP-2]”, the “% binding” value came to 90% with PSD-95 (setting [9]); 80% with PSD-95 (setting [10]); 85% with PSD-95 (setting [11]); 82% in the assay with PSD-95 (biotinylated 20-mer KV1.3 10 uM, competitor 50 uM); 105% in the assay with DLG-1 (setting [9]); 75% with DLG-1 (setting [10]). The “% binding” value in the assay with DLG-1 (setting [11]) came out at 93%.
As for “SEGGRPTRGPRLQGRRVTQV [HPV E6 52 (modified)]”, the Classification in assay [4] (PDZ BAI-1, PDZ Domain 2) is 5 (A450 nm of 4 more than 2× repeated); in [5], 0 (A450 nm 0, i.e., not found to interact).
As for “PYQSQGFSTEEDEDEQVSAV (Biotin-PYQSQGFSTEEDEDEQVSAV) [RA-GEF (ras/rap1A-assoc-GEF)]”, the Classification in [6] was 4 (A450 nm 3-4); in assay [7], 2 (A450 nm 1-2); in [8], 1 (A450 nm 0-1).
Take “REVKFTSL [CD46 8-mer, unlabeled peptide of the C-terminal 8 amino acids of CD46]”: the “% binding” value with PSD-95 (setting [12]) is given as 95%; with PSD-95 (setting [13]), 65%; with PSD-95 (setting [14]) it was 81%; with PSD-95 (setting [15]), 71%; in the assay with DLG-1 (setting [12]) it was 90%; with DLG-1 (setting [13]), 68%. Moreover, the “% binding” value with DLG-1 (setting [14]) is 90%; with DLG-1 (setting [15]), 63%.
In the case of GTSDMKDLVGNIEQNEHSVI [Mannose Receptor], the Classification in [4] (PDZ FLJ 00011, PDZ Domain 1) is given as 1 (A450 nm 0-1); in assay [2] (PDZ KIAA807) it was 1 (A450 nm 0-1); in assay [2] (PDZ KIAA0807(S), PDZ Domain 1), 1 (A450 nm 0-1); in [3] it was 1 (A450 nm 0-1).
With “GPDGIITVNDFTQNPRVQLE (Biotin-GPDGIITVNDFTQNPRVQLE) [ropporin]”, in assay [5], the Classification was 1 (A450 nm 0-1).
Turning to “SGGNRARQERLQRRRETQV (Biotin-SGGNRARQERLQRRRETQV) [HPV E6 #18]”, the Classification in assay [4] (PDZ BAI-1, PDZ Domain 2) was 5 (A450 nm of 4 more than 2× repeated); in [5] it was 4 (A450 nm 3-4).

These data come from patent publication US20050282743A1, “Molecular interactions in cells” (Arbor Vita Corporation, priority 2001, published 2005).
